System: p33^QIK, quiescence induced kinase, 33-kDa Krsl-related cytoplasmic protein kinase, endogenous in mouse NIH3T3 cytosolic lysate (S20)

Protein phosphatase 1 (PP1) (NE BioLabs)
kinase activity of p33^QIK in Ab-KQ immune complexes after phosphatase treatment (in-gel kinase assay, MBP substrate): treatment of activated p33^QIK with protein phosphatase PP1 ... resulted in deactivation of p33^QIK This deactivation was suppressed by phosphatase inhibitors
